Reference: patent publication CN116265487A

Molecular target: 重组蛋白hVEGF-Fc (human)
Experiment: cell-based or functional assay

Chain of 重组蛋白hVEGF-Fc (human) (chain, as listed by the source limits assumed): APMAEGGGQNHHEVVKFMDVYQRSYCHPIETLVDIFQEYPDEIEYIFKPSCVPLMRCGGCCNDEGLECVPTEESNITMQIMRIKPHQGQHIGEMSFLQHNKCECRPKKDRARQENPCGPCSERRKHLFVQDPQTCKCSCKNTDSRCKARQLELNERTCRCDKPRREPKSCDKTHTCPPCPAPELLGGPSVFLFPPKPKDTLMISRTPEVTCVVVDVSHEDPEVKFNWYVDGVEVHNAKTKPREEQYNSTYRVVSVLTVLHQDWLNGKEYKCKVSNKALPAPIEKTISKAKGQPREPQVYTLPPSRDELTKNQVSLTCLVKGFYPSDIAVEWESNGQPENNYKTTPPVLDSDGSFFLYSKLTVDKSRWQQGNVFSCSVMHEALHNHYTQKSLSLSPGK

Question: Faricimab (bispecific antibody) was tested. Which 中和VEGF活性IC 50 did it give?
Answer: The 中和VEGF活性IC 50 was 0.582 nM.
